Source: patent US20230047413A1

Key:
[1] = target: PHF-tau (paired helical filament tau isolated from Alzheimer's disease brain) (human) (UniProt P10636); test: SPR ProteOn, PHF-tau
[2] = target: tau seeds from GFP-tauP301L-overexpressing HEK cells (UniProt P10636); test: cell-based or functional assay
[3] = target: tau seeds from spinal cords of P301S transgenic animals (human) (UniProt P10636); test: cell-based or functional assay
[4] = target: tau seeds from cryopreserved human AD brain tissue (human) (UniProt P10636); test: cell-based or functional assay
tau seeds from cryopreserved human AD brain tissue (human), sequence (P10636 other isoform, or with tags, fused parts or gaps limits assumed): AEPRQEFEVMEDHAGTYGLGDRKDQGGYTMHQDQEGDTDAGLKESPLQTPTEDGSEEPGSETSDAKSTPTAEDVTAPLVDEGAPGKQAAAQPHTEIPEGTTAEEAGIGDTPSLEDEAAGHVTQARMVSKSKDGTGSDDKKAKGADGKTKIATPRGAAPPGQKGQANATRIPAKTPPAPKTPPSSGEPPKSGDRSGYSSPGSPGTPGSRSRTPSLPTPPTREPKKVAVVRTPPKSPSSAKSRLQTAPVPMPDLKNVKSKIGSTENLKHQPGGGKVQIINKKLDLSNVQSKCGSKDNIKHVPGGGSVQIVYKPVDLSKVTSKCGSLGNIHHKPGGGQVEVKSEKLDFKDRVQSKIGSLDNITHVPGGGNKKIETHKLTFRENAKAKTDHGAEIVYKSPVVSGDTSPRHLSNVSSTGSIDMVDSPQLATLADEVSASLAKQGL

[5] = target: recombinant human wild-type tau (Example 1) (human) (UniProt P10636); test: SPR Biacore, recombinant tau
recombinant human wild-type tau (Example 1) (human), sequence (P10636 other isoform, or with tags, fused parts or gaps limits assumed): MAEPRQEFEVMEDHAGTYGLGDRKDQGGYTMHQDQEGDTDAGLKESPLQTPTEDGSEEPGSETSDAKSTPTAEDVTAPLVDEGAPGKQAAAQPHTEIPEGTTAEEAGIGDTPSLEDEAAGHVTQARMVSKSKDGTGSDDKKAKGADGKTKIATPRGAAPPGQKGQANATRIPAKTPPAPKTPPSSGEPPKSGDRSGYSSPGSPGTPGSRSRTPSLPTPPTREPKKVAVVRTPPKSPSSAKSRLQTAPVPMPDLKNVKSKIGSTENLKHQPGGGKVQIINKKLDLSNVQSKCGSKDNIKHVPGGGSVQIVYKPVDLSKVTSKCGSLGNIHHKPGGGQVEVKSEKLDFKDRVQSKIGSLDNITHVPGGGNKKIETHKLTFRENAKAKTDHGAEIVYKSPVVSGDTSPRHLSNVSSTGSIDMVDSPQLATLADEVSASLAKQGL

[6] = target: PHF-tau (paired helical filament tau isolated from Alzheimer's disease brain) (human) (UniProt P10636); test: SPR ProteOn, PHF-tau capture-coupled via HT7, bivalent model

tau seeds from spinal cords of P301S transgenic animals (human), sequence (P10636 other isoform, or with tags, fused parts or gaps P301S P301S): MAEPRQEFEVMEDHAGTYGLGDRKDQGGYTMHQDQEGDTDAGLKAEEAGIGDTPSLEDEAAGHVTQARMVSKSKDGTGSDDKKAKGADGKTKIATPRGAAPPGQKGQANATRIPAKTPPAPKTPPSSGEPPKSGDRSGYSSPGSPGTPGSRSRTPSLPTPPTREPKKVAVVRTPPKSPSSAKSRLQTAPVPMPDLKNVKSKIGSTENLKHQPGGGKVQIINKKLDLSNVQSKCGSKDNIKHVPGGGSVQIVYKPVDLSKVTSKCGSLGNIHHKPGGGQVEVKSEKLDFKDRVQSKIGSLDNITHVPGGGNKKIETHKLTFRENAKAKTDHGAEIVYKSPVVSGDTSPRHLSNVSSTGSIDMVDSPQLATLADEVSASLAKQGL

| Kd [1] [nM] | koff [1] [s⁻¹] | kon [1] [M⁻¹ s⁻¹] | inhibition of K18 aggregate induction, BRET/GFP-tauP301L co-incubation assay, 300 nM antibody (% of negative control) [2] | FRET/P301S spinal cord immunodepletion assay, 300 nM antibody (% of negative control) [3] | inhibition of K18 aggregate induction, FRET/P301S spinal cord co-incubation assay, 300 nM antibody (% of negative control) [3] | FRET/human AD brain homogenate immunodepletion assay, 300 nM antibody (% of negative control) [4] | inhibition of K18 aggregate induction, BRET/GFP-tauP301L co-incubation assay, 166.67 nM antibody (% of negative control) [2] | inhibition of K18 aggregate induction, FRET/P301S spinal cord co-incubation assay, 89.99 nM antibody (% of negative control) [3] | Kd [5] [nM] | koff [5] [s⁻¹] | kon [5] [M⁻¹ s⁻¹] | Kd [6] [nM] | koff [6] [s⁻¹] | kon [6] [M⁻¹ s⁻¹] | Substance |
| --- | --- | --- | --- | --- | --- | --- | --- | --- | --- | --- | --- | --- | --- | --- | --- |
| 25.8 | 0.023 | 889000 |  |  |  |  |  |  |  |  |  |  |  |  | AT8 Fab |
| 0.092 | 0.000211 | 2.3e+06 | 10.5 | 96.7 | 26.4 | 80.7 |  |  |  |  |  |  |  |  | AT8 mAb (hyb) (antibody) |
| 0.131 | 9.26e-05 | 706000 |  | 99.2 |  | 83 | 65.4 | 73.5 | 3.05 | 0.0118 | 3.86e+06 | 0.193 | 0.00011 | 569000 | HT7 (antibody) |
